Tested on: MS2 coat protein
Assay: apparent KD of MS2 coat protein; designed switch direction (-1 OFF switch, 1 ON switch): -1; higher = weaker reporter binding
Outline: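 The reported apparent KD is a per-design median over clusters, from curve fits of normalised cluster fluorescence. Protein titrations used SNAP-549-labelled MS2 coat protein, doubled from 0.7 or 1.5 nM to 3 µM, in Tris-HCl pH 7.5 buffer with KCl, MgCl2, BSA, DTT, tRNA and Tween-20, with no input, 200 uM small-molecule ligand, or an oligonucleotide input. The RNA switches were transcribed on Illumina chips by stalled E. coli RNA polymerase.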

[1] = input ligand: microRNA oligo, concentration not stated
[2] = Eterna round: R95, input ligand: microRNA oligo, concentration not stated

Row | Sequence | apparent KD of MS2 coat protein [1] [µM] | apparent KD of MS2 coat protein (input ligand: FMN 200 uM) [µM] | apparent KD of MS2 coat protein (input ligand: none) [µM] | apparent KD of MS2 coat protein [2] [µM] | apparent KD of MS2 coat protein (Eterna round: R95, input ligand: FMN 200 uM) [µM] | apparent KD of MS2 coat protein (Eterna round: R95, input ligand: none) [µM]
1 | ACAUGAGGAUCACCCAUGUGACCACAAUGGCUGAUAUAGAAACAGGAUAUUCGUGAAUAUCUAACGAAGAAGGGUUAUGACUGG [Deportation 65 - Jieux - Exclusion NG 3] (Eterna round: R96, puzzle: Exclusion NG 3) | 0.061 | – | – | – | – | –
2 | ACAUGAGGAUCACCCAUGUGACCACAAUGGCUGAUGUAACGACAGGAUAUGCGUGAAUAUCUAACGCAGAAGGGUCAUGACUGG [Deportation 61 - Jieux - Exclusion NG 3] (Eterna round: R96, puzzle: Exclusion NG 3) | 0.0305 | 0.0628 | 0.0482 | – | – | –
3 | ACAUGAGGAUCACCCAUGUGACCACGAUGGCUGAUGUAGAGCUAGGAUAUGUGUGAAUAUCUAUCACAGAAGGAGCUUGACUGG [Deportation 52 - Jieux - Exclusion NG 3] (Eterna round: R96, puzzle: Exclusion NG 3) | 0.0183 | 0.0247 | 0.0257 | – | – | –
4 | ACAUGAGGAUCACCCAUGUGCACGUAAUGGCUCAUGUAGAGAGAGGAUAUGUGUGACGAACGAGCACAGAAGGCUCAAGACUGG [Deportation 14 - Jieux - Exclusion NG 3] (Eterna round: R96, puzzle: Exclusion NG 3) | 0.133 | 0.202 | 0.179 | – | – | –
5 | ACAUGAGGAUCACCCAUGUGCACGUAAUGGCUCAUGUAGAGUGAGGAUAUGCGUGGCGAACUCGCGCAGAAGGCACAAGACUGG [Deportation 19 - Jieux - Exclusion NG 3] (Eterna round: R96, puzzle: Exclusion NG 3) | 0.0659 | 0.0888 | 0.0825 | – | – | –
6 | ACAUGAGGAUCACCCAUGUGGACGUAAAGGCUCAUGUAGAGUGAGGAUAUGUGAGACGAACGAGAACAGAAGGCACAAGACAGG [Deportation 6 - Jieux - Exclusion NG 3] (Eterna round: R96, puzzle: Exclusion NG 3) | 0.0167 | 0.0157 | 0.0199 | – | – | –
7 | ACAUGAGGAUCACCCAUGUUCGGCUGGUCCGUCUCGGCUGUCGAGGAUAUAGCUCGGUGUCCGCGCUAGAAGGCGGGAGCUGGC [Aenatbe mod 66] (Eterna round: R96, puzzle: Exclusion NG 3) | 0.047 | 0.106 | 0.09 | – | – | –
8 | ACAUGAGGCGAAGGAUAUCUUUAGAGGAUUACCAGAGAAGGUCGACAUGAGGAUCACCCAUGUACAUGAGGGUCUUGAAUGUUA [9th something] (Eterna round: R96, puzzle: Exclusion NG 1) | 0.199 | 0.245 | 0.25 | – | – | –
9 | ACAUGAUACUAGGAUAUCAGCAUACUUCAAUGUUGAGAAGGAGUAACAUGAGGAUCACCCAUGUAUCCAACAUG [Exclusion 6 - 4:b] (puzzle: Exclusion 6) | – | – | – | 0.0435 | – | –
10 | ACAUGUAAUGCAGGAUAUCGGACACAUGAGGAUCACCCAUGUGACCUGAGGUAUUGCUAAGAGUCUGAGAAGGGUAUGUACAUG [Ex NG2 #51] (Eterna round: R96, puzzle: Exclusion NG 2) | 0.0157 | 0.0287 | 0.0204 | – | – | –
11 | ACAUGUAAUGUAGGAUAUUUUACACAUGAGGAUCACCCAUGUGACCAGAGGCUUUACUAUGAGUAAAAGAAGGGUAUGUACAUG [Ex NG2 #60] (Eterna round: R96, puzzle: Exclusion NG 2) | 0.0335 | 0.0696 | 0.0542 | – | – | –
12 | ACAUGUCAUCGAGGAUAUUGGACACAUGAGGAUCACCCAUGUACCCGGAGGCUCUACUAUGAGUUCGAGAAGGCGAUGUACAUG [Ex NG2 #74] (Eterna round: R96, puzzle: Exclusion NG 2) | 0.0195 | 0.169 | 0.0256 | – | – | –
13 | ACAUGUGUUGUAGGAUAUAGGAGACAUGAGGAUCACCCAUGUUGAUUCAUGUCUAUGGAAACGUCCUAGAAGGACGACAACAUG [Ex NG2 #20] (Eterna round: R96, puzzle: Exclusion NG 2) | 0.111 | 0.237 | 0.201 | – | – | –
14 | ACAUGUGUUGUAGGAUAUAGUGGACAUGAGGAUCACCCAUGUUGAUUCAUGUCUAUGGAAACGUACUAGAAGGACGACAAUAUG [Ex NG2 #18] (Eterna round: R96, puzzle: Exclusion NG 2) | 0.875 | 0.806 | 1.05 | – | – | –
15 | ACAUUACAUGAGGAUCACCCAUGUGAGGAUAUGGUGCGGUAGUGUCCUGUCGCGUACACCAGAAGGCGCGGGUG [1st #47] (Eterna round: R97, puzzle: Exclusion 1) | – | 0.122 | 0.258 | – | – | –
16 | ACAUUCAGAGGAUAUGCGCAUAGAUAAGACUUUGUUUCUUAACAUGAGGAUCACCCAUGUAGAAGGCUGUACCC [Ex2 #66] (Eterna round: R97, puzzle: Exclusion 2) | – | 0.0266 | 0.0209 | – | – | –
17 | ACAUUCAGAGGAUAUGCGCAUAGAUAAGACUUUUUUUUUUAACAUGAGGAUCACCCAUGUAGAAGGCUGUAACC [Ex2 #48] (Eterna round: R97, puzzle: Exclusion 2) | – | 0.0238 | 0.0243 | – | – | –
18 | ACAUUGAAUGUGAGGAUAUCGAUGUGAUGGGUUGUCGAGAAGGCACAUGAGGAUCACCCAUGUGGGAAACAGCA [JR_BMEx4_Sub031] (Eterna round: R97, puzzle: Brourd's mod of Exclusion 4) | – | 0.127 | 0.0446 | – | – | –
19 | ACAUUGUAUGUGAGGAUAUCGAUGGGAUGGGUUGUCGAGAAGGCACAUGAGGAUCACCCAUGUAAGGGACAGCA [JR_BMEx4_Sub029] (Eterna round: R97, puzzle: Brourd's mod of Exclusion 4) | – | 0.295 | 0.0831 | – | – | –
20 | ACCGACAGAGGAUAUGCAAGUAGGAACAUGAGGAUCACCCAUGUGAUACGUGCACGUGCGGCAGAAGGCUGAUCGA [Velamaed] (Eterna round: R97, puzzle: Exclusion 5) | – | 0.0171 | 0.0154 | – | – | –
21 | ACCUAACAUGAGGAUCACCCAUGUCAGGAUAUCCAAGCGAAAGCAAAAGCGAAAGCAAGGAGAAGGGACAGAGG [ChP 04-04-2015 #8] (puzzle: Exclusion 1) | – | – | – | 0.0324 | 0.0622 | 0.0284
22 | ACCUCACAUGAGGAUCACCCAUGUCAGGAUAUCUAAUAUUGCAGCGUUCCCGACGCUGAGAGAAGGGACAUUAA [EX1 #30] (Eterna round: R97, puzzle: Exclusion 1) | – | 0.0296 | 0.0177 | – | – | –
23 | ACCUCUGAGGAGGAUAUACAGUGCGAAAGGACAGUAGAAGGCUUCACAUGAGGAUCACCCAUGUCGAAAAGUGA [EX6 #80] (Eterna round: R97, puzzle: Exclusion 6) | – | 0.127 | 0.0926 | – | – | –
24 | ACGACCUGAGGAUAUACAUGAGGAUCACCCAUGUAUGCAACAGCCGGGAAAUCCCGAUGUAGAAGGCAGGAAAA [Eternabot (Original) Solution 26] (Eterna round: R97, puzzle: Exclusion 3) | – | 0.252 | 0.0322 | – | – | –
25 | ACGAUGAUCGAAAAGUGUAAACUAACAUGAGGAUCACCCAUGUAGGAUAUGGCUACGAAAAGUAGUCAGAAGGGCAUGUCAUCA [3 Av mod - 2] (Eterna round: R96, puzzle: Exclusion NG 3) | 0.0132 | 0.024 | 0.0203 | – | – | –
26 | ACGCAUUGCCUUUGGUAGUGCGUAACAUGAGGAUCACCCAUGUAGGAUAUGGUAGGCUUUGCUUACCAGAAGGACAUAAUAAUA [Mat - Exclusion NG 3 - Mod of JL - D1] (Eterna round: R96, puzzle: Exclusion NG 3) | 0.0227 | 0.0542 | 0.0266 | – | – | –
27 | ACGCGUGGCUAGGAUAUGCAGCUAUCUGGCCAGGCAGAAGGAGCCACAUGAGGAUCACCCAUGUGGUGAUCCUC [eternacac ex6r4 sub3] (Eterna round: R97, puzzle: Exclusion 6) | – | 0.0121 | 0.0119 | – | – | –
28 | ACGGCUGAAGGAUAUGCAGUGACCACAAAGGUAUGACUAUCACAUGAGGAUCACCCAUGUAGAAGGUCGGCGCC [Eternabot (L2) Solution 29] (Eterna round: R97, puzzle: Exclusion 2) | – | 0.0136 | 0.0144 | – | – | –
29 | ACGGUGGUCCGAGAACAUGAGGAUCACCCAUGUGACAAAACCAAGGAUAUAGAAGGACCGCCCGACUAGAAGGUGGAAAGAAAA [Aresonen] (Eterna round: R96, puzzle: Exclusion NG 3) | 0.0733 | 0.101 | 0.117 | – | – | –

Reference: the supplement of paper PMC9170038
